This experiment has as its target nucleosomes reconstituted in vitro from X. laevis core histones on biotinylated pKYB1 DNA (Xenopus laevis). The experiment is described as follows: optical tweezers with confocal fluorescence microscopy; nucleosomes on pKYB1 DNA tethered between streptavidin beads, in 1–2 nM fluorescently labelled chaperone; force-extension curves 1–32 pN at 20 nm/s with kymographs at 4 Hz; binding events after unwrapping / at high force (>10 pN); 25 mM HEPES, 50 mM KCl, 0.1 mM EDTA, pH 7.5.

A value given as a limit tells only on which side of the number the result lay.

Sequence of nucleophosmin 1, labelled with Alexa Fluor 532 (P06748 whole entry): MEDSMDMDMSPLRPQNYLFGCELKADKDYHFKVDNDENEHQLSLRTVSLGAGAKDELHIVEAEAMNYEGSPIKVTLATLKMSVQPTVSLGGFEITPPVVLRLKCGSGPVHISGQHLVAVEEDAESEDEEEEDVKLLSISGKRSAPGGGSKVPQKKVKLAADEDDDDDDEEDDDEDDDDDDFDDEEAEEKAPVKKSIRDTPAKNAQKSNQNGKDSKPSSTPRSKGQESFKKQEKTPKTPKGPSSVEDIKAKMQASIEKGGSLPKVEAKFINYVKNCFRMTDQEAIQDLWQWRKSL

Consider “SET/template‐activating factor‐Iβ Q69C, labelled with Alexa Fluor 532 (from UniProt Q01105-2 1-277) (natural protein)”, for which the percent of the chaperone binding events found after complete unwrapping is greater than 90%. As for “nucleophosmin 1, labelled with Alexa Fluor 532 (from UniProt P06748 1-294) (natural protein)”, the figure is greater than 90%.

The values are drawn from article PMC10582448.
